# Experimental data: publication PMC9482650, “Quantitative fragmentomics allow affinity mapping of interactomes” (Nature Communications, 2022)
# Substitutions are numbered along the chain they refer to.
# B1: AMOTL1, Q8IY63 (peptide)
# chain: PDGEMMEVLI
# B2: RAMP3, O60896 (peptide)
# chain: WRSKRTDTLL
# Target: T1, GRIP1_7, Q9Y3R0
# T1 sequence (Q9Y3R0 999-1096, limits assumed, looked up): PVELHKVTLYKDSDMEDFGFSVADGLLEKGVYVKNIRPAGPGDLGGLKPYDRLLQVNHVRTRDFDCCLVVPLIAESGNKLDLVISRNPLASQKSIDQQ
# Assay: holdup assay
# Parameters: key: below the threshold = too weak to quantify, mostly under pKd 3.1 to 4
# Conditions: plain residues with an end cap or a label only (N-terminal biotin on a linker: ado-ado)
row,Binder,pKd
1,B1,below the threshold
2,B2,below the threshold

# Target: TJP1_3, Q07157
# Assay: holdup assay
# Parameters: key: below the threshold = too weak to quantify, mostly under pKd 3.1 to 4
# Conditions: plain residues with an end cap or a label only (N-terminal biotin on a linker: ado-ado)
# Sequence of TJP1_3, Q07157 (Q07157 416-512): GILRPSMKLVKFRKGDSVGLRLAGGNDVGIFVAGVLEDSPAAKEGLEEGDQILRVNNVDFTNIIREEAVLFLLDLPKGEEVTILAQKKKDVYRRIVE
row,Binder,pKd
1,B1,below the threshold
2,B2,below the threshold

# Target: T2, LIN7A, O14910
# T2 sequence (O14910 103-200, limits assumed, looked up): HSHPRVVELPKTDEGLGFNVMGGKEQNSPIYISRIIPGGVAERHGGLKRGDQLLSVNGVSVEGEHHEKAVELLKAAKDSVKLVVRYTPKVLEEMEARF
# Assay: holdup assay
# Parameters: key: below the threshold = too weak to quantify, mostly under pKd 3.1 to 4
# Conditions: plain residues with an end cap or a label only (N-terminal biotin on a linker: ado-ado)
row,Binder,pKd
1,B1,below the threshold
2,B2,below the threshold

# Target: FRMPD3, Q5JV73
# Assay: holdup assay
# Parameters: key: below the threshold = too weak to quantify, mostly under pKd 3.1 to 4
# Conditions: plain residues with an end cap or a label only (N-terminal biotin on a linker: ado-ado)
# Sequence of FRMPD3, Q5JV73 (Q5JV73 12-100): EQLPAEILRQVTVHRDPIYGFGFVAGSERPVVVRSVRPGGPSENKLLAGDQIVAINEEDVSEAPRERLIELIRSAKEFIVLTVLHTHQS
row,Binder,pKd
1,B1,below the threshold
2,B2,below the threshold

# Target: T3, SYNJ2BP, P57105
# T3 sequence (P57105 8-110, limits assumed, looked up): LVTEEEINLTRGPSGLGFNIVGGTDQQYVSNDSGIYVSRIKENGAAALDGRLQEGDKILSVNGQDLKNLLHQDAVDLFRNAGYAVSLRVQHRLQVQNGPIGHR
# Assay: holdup assay
# Parameters: key: below the threshold = too weak to quantify, mostly under pKd 3.1 to 4
# Conditions: plain residues with an end cap or a label only (N-terminal biotin on a linker: ado-ado)
row,Binder,pKd
1,B1,below the threshold
2,B2,3.84

# Target: T4, MPDZ_5, O75970
# T4 sequence (O75970 695-796, limits assumed, looked up): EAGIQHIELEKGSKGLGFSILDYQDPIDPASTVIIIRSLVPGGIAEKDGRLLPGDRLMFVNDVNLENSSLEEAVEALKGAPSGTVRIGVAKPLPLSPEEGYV
# Assay: holdup assay
# Parameters: key: below the threshold = too weak to quantify, mostly under pKd 3.1 to 4
# Conditions: plain residues with an end cap or a label only (N-terminal biotin on a linker: ado-ado)
row,Binder,pKd
1,B1,below the threshold
2,B2,below the threshold

# Target: T5, GRIP1_4, Q9Y3R0
# T5 sequence (Q9Y3R0 467-571, limits assumed, looked up): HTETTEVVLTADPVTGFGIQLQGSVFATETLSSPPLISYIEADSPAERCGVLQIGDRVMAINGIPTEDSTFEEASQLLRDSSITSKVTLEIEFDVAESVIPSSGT
# Assay: holdup assay
# Parameters: key: below the threshold = too weak to quantify, mostly under pKd 3.1 to 4
# Conditions: plain residues with an end cap or a label only (N-terminal biotin on a linker: ado-ado)
row,Binder,pKd
1,B1,below the threshold
2,B2,below the threshold

# Target: T6, SNTB1, Q13884
# T6 sequence (Q13884 107-205, limits assumed, looked up): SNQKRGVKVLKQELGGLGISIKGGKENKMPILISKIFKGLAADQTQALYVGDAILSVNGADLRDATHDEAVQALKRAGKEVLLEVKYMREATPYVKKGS
# Assay: holdup assay
# Parameters: key: below the threshold = too weak to quantify, mostly under pKd 3.1 to 4
# Conditions: plain residues with an end cap or a label only (N-terminal biotin on a linker: ado-ado)
row,Binder,pKd
1,B1,below the threshold
2,B2,below the threshold

# Target: T7, PTPN13_1, Q12923
# T7 sequence (Q12923 1088-1188, limits assumed, looked up): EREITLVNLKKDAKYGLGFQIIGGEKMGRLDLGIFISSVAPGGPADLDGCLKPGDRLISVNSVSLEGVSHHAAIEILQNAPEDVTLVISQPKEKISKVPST
# Assay: holdup assay
# Parameters: key: below the threshold = too weak to quantify, mostly under pKd 3.1 to 4
# Conditions: plain residues with an end cap or a label only (N-terminal biotin on a linker: ado-ado)
row,Binder,pKd
1,B1,below the threshold
2,B2,below the threshold

# Target: AHNAK1, Q09666
# Assay: holdup assay
# Parameters: key: below the threshold = too weak to quantify, mostly under pKd 3.1 to 4
# Conditions: plain residues with an end cap or a label only (N-terminal biotin on a linker: ado-ado)
# Sequence of AHNAK1, Q09666 (Q09666 4-100): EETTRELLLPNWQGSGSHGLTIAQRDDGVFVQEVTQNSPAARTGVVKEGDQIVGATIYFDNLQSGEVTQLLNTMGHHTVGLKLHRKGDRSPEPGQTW
row,Binder,pKd
1,B1,below the threshold
2,B2,below the threshold

# Target: Inadl_5, Q8NI35
# Assay: holdup assay
# Parameters: key: below the threshold = too weak to quantify, mostly under pKd 3.1 to 4
# Conditions: plain residues with an end cap or a label only (N-terminal biotin on a linker: ado-ado)
# Sequence of Inadl_5, Q8NI35 (Q8NI35 673-780): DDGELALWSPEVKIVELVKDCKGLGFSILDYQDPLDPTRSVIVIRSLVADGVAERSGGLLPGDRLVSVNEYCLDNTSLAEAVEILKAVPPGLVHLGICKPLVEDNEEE
row,Binder,pKd
1,B1,below the threshold
2,B2,below the threshold

# Target: MAST2, Q6P0Q8
# Assay: holdup assay
# Parameters: key: below the threshold = too weak to quantify, mostly under pKd 3.1 to 4
# Conditions: plain residues with an end cap or a label only (N-terminal biotin on a linker: ado-ado)
# Sequence of MAST2, Q6P0Q8 (Q6P0Q8 1099-1202): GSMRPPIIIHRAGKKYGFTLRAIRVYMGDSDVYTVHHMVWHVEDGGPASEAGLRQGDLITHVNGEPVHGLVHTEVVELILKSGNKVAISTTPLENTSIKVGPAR
row,Binder,pKd
1,B1,3.73
2,B2,5.45

# Target: T8, DFNB31_3, Q9P202
# T8 sequence (Q9P202 811-907, limits assumed, looked up): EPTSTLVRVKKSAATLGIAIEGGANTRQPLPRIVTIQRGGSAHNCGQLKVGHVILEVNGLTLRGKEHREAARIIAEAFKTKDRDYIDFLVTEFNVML
# Assay: holdup assay
# Parameters: key: below the threshold = too weak to quantify, mostly under pKd 3.1 to 4
# Conditions: plain residues with an end cap or a label only (N-terminal biotin on a linker: ado-ado)
row,Binder,pKd
1,B1,3.65
2,B2,below the threshold

# Target: T9, LIN7C, Q9NUP9
# T9 sequence (Q9NUP9 88-185, limits assumed, looked up): T2 sequence (O14910 103-200, limits assumed, looked up) with D13E, V20I, V40I, E42D, K77Q, D78G, S79K, A96S
# Assay: holdup assay
# Parameters: key: below the threshold = too weak to quantify, mostly under pKd 3.1 to 4
# Conditions: plain residues with an end cap or a label only (N-terminal biotin on a linker: ado-ado)
row,Binder,pKd
1,B1,below the threshold
2,B2,below the threshold

# Target: T10, SNTG1, Q9NSN8
# T10 sequence (Q9NSN8 52-150, limits assumed, looked up): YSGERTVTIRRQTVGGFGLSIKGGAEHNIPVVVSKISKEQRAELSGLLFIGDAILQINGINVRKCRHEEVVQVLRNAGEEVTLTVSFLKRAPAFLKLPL
# Assay: holdup assay
# Parameters: key: below the threshold = too weak to quantify, mostly under pKd 3.1 to 4
# Conditions: plain residues with an end cap or a label only (N-terminal biotin on a linker: ado-ado)
row,Binder,pKd
1,B1,3.63
2,B2,below the threshold

# Target: GRID2IP_1, A4D2P6
# Assay: holdup assay
# Parameters: key: below the threshold = too weak to quantify, mostly under pKd 3.1 to 4
# Conditions: plain residues with an end cap or a label only (N-terminal biotin on a linker: ado-ado)
# Sequence of GRID2IP_1, A4D2P6 (A4D2P6 1-87): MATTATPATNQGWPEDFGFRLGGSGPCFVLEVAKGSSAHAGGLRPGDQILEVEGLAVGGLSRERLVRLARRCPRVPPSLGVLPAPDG
row,Binder,pKd
1,B1,below the threshold
2,B2,below the threshold

# Target: GORASP2, Q9H8Y8
# Assay: holdup assay
# Parameters: key: below the threshold = too weak to quantify, mostly under pKd 3.1 to 4
# Conditions: plain residues with an end cap or a label only (N-terminal biotin on a linker: ado-ado)
row,Binder,pKd
1,B1,below the threshold
2,B2,below the threshold

# Target: T11, NHERF3_3, Q5T2W1
# T11 sequence (Q5T2W1 238-333, limits assumed, looked up): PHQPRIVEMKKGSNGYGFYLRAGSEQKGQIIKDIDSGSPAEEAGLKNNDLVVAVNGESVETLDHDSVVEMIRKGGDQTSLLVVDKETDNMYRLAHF
# Assay: holdup assay
# Parameters: key: below the threshold = too weak to quantify, mostly under pKd 3.1 to 4
# Conditions: plain residues with an end cap or a label only (N-terminal biotin on a linker: ado-ado)
row,Binder,pKd
1,B1,below the threshold
2,B2,3.48

# Target: T12, RAPGEF6, Q8TEU7
# T12 sequence (Q8TEU7 525-625, limits assumed, looked up): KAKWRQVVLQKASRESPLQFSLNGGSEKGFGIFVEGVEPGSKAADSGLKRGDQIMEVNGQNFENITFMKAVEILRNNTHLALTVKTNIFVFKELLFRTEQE
# Assay: holdup assay
# Parameters: key: below the threshold = too weak to quantify, mostly under pKd 3.1 to 4
# Conditions: plain residues with an end cap or a label only (N-terminal biotin on a linker: ado-ado)
row,Binder,pKd
1,B1,below the threshold
2,B2,below the threshold

# Target: PICK1, Q9NRD5
# Assay: holdup assay
# Parameters: key: below the threshold = too weak to quantify, mostly under pKd 3.1 to 4
# Conditions: plain residues with an end cap or a label only (N-terminal biotin on a linker: ado-ado)
# Sequence of PICK1, Q9NRD5 (Q9NRD5 17-115): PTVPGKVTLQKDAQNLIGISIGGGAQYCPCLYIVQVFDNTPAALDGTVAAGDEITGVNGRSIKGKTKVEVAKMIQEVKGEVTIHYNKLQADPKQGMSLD
row,Binder,pKd
1,B1,below the threshold
2,B2,below the threshold

# Target: LNX1_3, Q8TBB1
# Assay: holdup assay
# Parameters: key: below the threshold = too weak to quantify, mostly under pKd 3.1 to 4
# Conditions: plain residues with an end cap or a label only (N-terminal biotin on a linker: ado-ado)
# Sequence of LNX1_3, Q8TBB1 (Q8TBB1 500-596): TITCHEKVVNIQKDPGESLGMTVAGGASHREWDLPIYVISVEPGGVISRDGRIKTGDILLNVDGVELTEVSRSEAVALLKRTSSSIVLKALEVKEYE
row,Binder,pKd
1,B1,below the threshold
2,B2,below the threshold

# Target: FRMPD2_2, Q68DX3
# Assay: holdup assay
# Parameters: key: below the threshold = too weak to quantify, mostly under pKd 3.1 to 4
# Conditions: plain residues with an end cap or a label only (N-terminal biotin on a linker: ado-ado)
# Sequence of FRMPD2_2, Q68DX3 (Q68DX3 944-1038): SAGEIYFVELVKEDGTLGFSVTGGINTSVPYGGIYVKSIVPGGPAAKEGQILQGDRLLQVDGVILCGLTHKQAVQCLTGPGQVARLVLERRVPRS
row,Binder,pKd
1,B1,below the threshold
2,B2,below the threshold

# Target: MAGI2_5, Q86UL8
# Assay: holdup assay
# Parameters: key: below the threshold = too weak to quantify, mostly under pKd 3.1 to 4
# Conditions: plain residues with an end cap or a label only (N-terminal biotin on a linker: ado-ado)
# Sequence of MAGI2_5, Q86UL8 (Q86UL8 915-1017): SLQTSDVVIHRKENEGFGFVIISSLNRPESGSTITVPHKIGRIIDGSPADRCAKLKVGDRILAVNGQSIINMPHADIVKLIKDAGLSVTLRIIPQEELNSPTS
row,Binder,pKd
1,B1,below the threshold
2,B2,below the threshold

# Target: T13, PDZD2_2, O15018
# T13 sequence (O15018 329-429, limits assumed, looked up): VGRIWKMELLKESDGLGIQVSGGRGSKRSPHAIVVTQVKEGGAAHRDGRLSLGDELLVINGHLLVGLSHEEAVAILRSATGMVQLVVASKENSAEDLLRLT
# Assay: holdup assay
# Parameters: key: below the threshold = too weak to quantify, mostly under pKd 3.1 to 4
# Conditions: plain residues with an end cap or a label only (N-terminal biotin on a linker: ado-ado)
row,Binder,pKd
1,B1,3.77
2,B2,3.52
